Experimental data: the supplement of paper PMC10567573
± gives the standard deviation.

Experiment: protein stability index of a GFP-peptide fusion (GPS, HEK-293T) (PSI 1-6); higher = more stable
Conditions: c terminus: a fixed tail appended
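Note: 24-mer peptide tiles fused after GFP, lentivirally expressed, FACS-sorted into six equal bins by GFP/DsRed ratio, decoded by Illumina sequencing, PSI is the read-weighted mean bin number.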

Sequence | protein stability index (treatment: DMSO) | protein stability index (treatment: MLN4924 1 uM, 8 h)
EDKCPGNYTNPLKVQTVIILGKVI [TMEM192] | 2.47 ± 1 | 2.29 ± 0.37
EDMEASDYELEDETRPAKRITITE [WEE1] | 5.42 ± 0.25 | 5.36 ± 0.17
EDVEAVQKLQDVLHEALQDYEAGQ [ESRRG] | 4.92 ± 0.46 | 4.95 ± 0.51
EEEERLRREEEERRRIEEERLRLE [ACBD3] | 5.61 ± 0.25 | 5.52 ± 0.12
EEEGFGSSSPVKSPAAPYFLGSSF [WEE1] | 3.73 ± 0.18 | 3.77 ± 0.065
EEELQEIASEPTNKHLFYAEDFST [MATN2] | 5.26 ± 0.41 | 5.21 ± 0.32
EEHESGIEQFSESHAIHVEEQSDQ [IQUB] | 5.61 ± 0.12 | 5.56 ± 0.11
EEVLCDSCIGNKQKAVKSCLVCQA [TRIM29] | 5.52 ± 0.17 | 5.22 ± 0.26
EFFAVTRFLVGMMNGGMSLVAFVL [SLC22A15] | 2.22 ± 0.24 | 2.2 ± 0.38
EGCTGALHILARDVHNRIVIRGLN [CTNNB1] | 2.65 ± 0.23 | 2.71 ± 0.17
EGKRKAFYTCASHVTVVILFFVPC [OR4A15] | 2.77 ± 0.18 | 3.03 ± 0.38
EGSLCAAHLPKAQLSGYAVEATRN [FBF1] | 4.01 ± 0.17 | 3.99 ± 0.087
EGYRVSQALRENTYPFLAMIMLKD [FAF2] | 2.36 ± 0.2 | 2.44 ± 0.29
EKEKEKHKVKAEEEKKAKVAPPAK [BRD3] | 5.38 ± 0.34 | 5.56 ± 0.14
EKINKIKWLPQQNAAHSLLSTNDK [PPP2R2C] | 4.07 ± 0.19 | 4.15 ± 0.11
EKLNIPWNHIRLQRTAKGKPVLAK [AASDHPPT] | 3.16 ± 0.2 | 3.05 ± 0.33
ELDDTLKYSFLQFDPAPRRGEPHV [PPP2CA] | 3.2 ± 0.32 | 3.41 ± 0.31
ELDELASKAPVLTYGQPKQAPPAD [EFHC1] | 5.44 ± 0.25 | 5.59 ± 0.15
ELKVKDSQPIDLSACTVALHIFQL [TRIP13] | 2.58 ± 0.47 | 2.15 ± 0.6
ELQGDFSVPDVPKSMAWCENSICV [VPS39] | 2.67 ± 0.22 | 2.67 ± 0.18
ELQREWLGNREALIQFLEQVHQGI [CPN1] | 2.76 ± 0.12 | 2.97 ± 0.3
EMQQQMSLGELCHPVPLSFEPVKS [TRIM14] | 3.62 ± 0.22 | 4.05 ± 0.31
EMREIRRKLRELQLRNCLRILMGE [BEX3] | 2.35 ± 0.38 | 2.28 ± 0.38

Sequence | protein stability index (treatment: DMSO) | protein stability index (treatment: MLN4924 1 uM, 8 h)
ENEKLHQRVEQLTRDLAGLRQFFK [CEBPD] | 3.01 ± 1.3 | 2.55 ± 0.28
ENRGIVVLGINRAYGKNSLSKNLI [AUH] | 2.84 ± 1.2 | 2.44 ± 1.2
EPDNWMKEVMLFGHGTRKRVPLGR [RSAD1] | 3.69 ± 0.29 | 3.32 ± 0.15
EPPVTMIFMGYQNVEDEAETKKVL [PALM] | 4.07 ± 0.37 | 4.09 ± 0.051
EQHDLVYGDWTSGENSDGCYEHFA [CLPTM1] | 4.53 ± 0.22 | 4.41 ± 0.36
EQHVHNEKSVLKEVSHPFLIRLFW [PRKX] | 2.25 ± 0.25 | 2.26 ± 0.081
EQKRLERLQRKLVEPKHCFTSPDY [SDE2] | 3.25 ± 0.35 | 3.62 ± 0.26
EQRDQLERTKSRLVNTSENLSKSR [VTI1B] | 5.18 ± 0.31 | 5.01 ± 0.18
ERMWAAIQSWDINSRRNINYRSFE [ZER1] | 2.28 ± 0.35 | 2.26 ± 0.25
ERQEEQSAAIHISETLEQKPHFES [EPB41L3] | 5.43 ± 0.15 | 5.38 ± 0.28
ERSRDVVDDVSVSLRLWDTFGDHH [RHOBTB2] | 3.7 ± 0.14 | 3.63 ± 0.22
ESDTDIYETVAAATSESTTVEPGK [DRICH1] | 5.66 ± 0.14 | 5.6 ± 0.2
ESDVKHRTRDYKKTSLAPYVKVFE [PRIM1] | 3.39 ± 0.33 | 3.62 ± 0.38
ESGVHGALLALDENFDHNTLALIL [PPFIA4] | 2.75 ± 0.17 | 2.96 ± 0.27
ESRLKRSNPLAREIFRRHFRQLCY [ZSCAN9] | 2.15 ± 0.25 | 2.34 ± 0.1
ESSSRGEAGAPGEEDIQGPTKADT [CHGB] | 5.64 ± 0.29 | 5.43 ± 0.32
ESSTREVVFPYTSKSCMRAVLEYL [RHOBTB2] | 2.74 ± 0.13 | 2.32 ± 0.25
ETIQGFWLLTKIDHWNNEKERILL [TPRG1] | 2.59 ± 0.44 | 2.73 ± 0.59
ETKLDLISKGEEPRAGKEESGVSV [SLC29A1] | 5.44 ± 0.15 | 5.39 ± 0.52
EVEAKFKRYESHPVCADLQAKILQ [CHCHD3] | 3.66 ± 0.21 | 3.58 ± 0.078
EVEELDNWQPAVPLMHMLHLSGAL [SPATS1] | 2.18 ± 0.27 | 2.16 ± 0.35
EVYYDGQWGTVCDDDFSIHAAHVV [LOXL2] | 2.62 ± 0.31 | 2.6 ± 0.37
EYGTCMCLVKGIFYHCSNDDEGDS [SPRY1] | 3.14 ± 0.21 | 3.27 ± 0.23

Sequence | protein stability index (treatment: DMSO) | protein stability index (treatment: MLN4924 1 uM, 8 h)
EYNYDWWEKKPFSEDVNWGYEKRN [CHGB] | 3.17 ± 0.21 | 3.19 ± 0.23
EYQVLLDVKARLEGEIATYRHLLE [KRT36] | 2.54 ± 0.32 | 2.53 ± 0.29
FALQSDLDQPAFQQLVSFSESGSL [ISL2] | 2.91 ± 0.37 | 3.03 ± 0.3
FCDMDKSLLCLLCSNSQEHGAHKH [TRIM43] | 2.49 ± 0.37 | 3 ± 0.67
FDGRHSQTLKAMVQAWPFTCLPLG [PRAME] | 2.38 ± 0.48 | 2.24 ± 0.36
FDPIVLLPCDLPKVVSRAENLSVP [LPCAT4] | 2.8 ± 0.2 | 2.87 ± 0.3
FDVVVCDQVSACIPVFRLARRRKK [ALG2] | 2.59 ± 0.28 | 2.62 ± 0.2
FECAWNGSDSVIMTGAYNNFFRMF [PPP2R2C] | 2.5 ± 0.35 | 2.35 ± 0.6
FEVPYYNRGLILYRLGYFDDALED [TTC32] | 2.5 ± 0.44 | 2.23 ± 0.36
FGDSPKAEKRQIGDQEGPRPARST [FBF1] | 5.11 ± 0.47 | 5.08 ± 0.36
FGGGSTRGGSLLAGGGGFGGGSLS [KRT15] | 2.54 ± 0.43 | 3.11 ± 0.52
FGSLPSPKELSSFSFSMKGHEKTA [DLC1] | 3.53 ± 0.19 | 3.74 ± 0.25
FGSQQSPIDVVEKYDPKTQEWSFL [KLHL12] | 3.44 ± 0.34 | 3.65 ± 0.39
FHITNDEPIPFWTFLSRILTGLNY [NSDHL] | 2.45 ± 0.58 | 2.2 ± 0.15
FHVNLGKESRAQTLQNGRRHIHHL [BRF1] | 2.66 ± 0.34 | 2.93 ± 0.41
FIIEYYNIRPADSRWVRDPRYRED [FBXO34] | 2.44 ± 0.53 | 2.26 ± 0.29
FIMLSCVQLQRIPLSAVYRICLGK [TPRG1] | 3.06 ± 0.75 | 2.01 ± 0.43
FKAWLHNSGTDQEQIHLLLSSQCF [M1AP] | 2.6 ± 0.66 | 2.43 ± 0.39
FLDIDTSAVEKEPARAPPEPPHNL [SERTAD3] | 4.84 ± 0.13 | 4.98 ± 0.45
FLIEGPLINTIRVVCASYEDYGHW [PLEKHN1] | 3.56 ± 0.49 | 2.58 ± 0.94
FLKQGDSADETTAHKTEEENSDSD [CMTM3] | 5.63 ± 0.25 | 5.58 ± 0.43
FLLFLLTGIVSVAFLLLPLPDELG [MOSPD3] | 3.36 ± 0.39 | 2.89 ± 0.9
FLYMLMEYVPGGELFSYLRNRGRF [PRKX] | 2.75 ± 0.29 | 2.42 ± 0.28

Sequence | protein stability index (treatment: DMSO) | protein stability index (treatment: MLN4924 1 uM, 8 h)
FMECLVDARMLDHLTKKDLRVHLK [PPFIA4] | 2.4 ± 0.32 | 2.67 ± 0.24
FNNGEYAEAEALYSAYIRRCACAA [TTC32] | 2.39 ± 0.19 | 2.64 ± 0.46
FQNFSLHDPLYGKLFSTYLRPPHT [LPCAT4] | 2.27 ± 0.36 | 2.12 ± 0.19
FQREALENSHTNTEVLRNMGFAAK [CHMP4C] | 3.59 ± 0.21 | 4.08 ± 0.28
FRCPTCRHEVIMDRHGVYGLQRNL [TRIM63] | 2.31 ± 0.3 | 2.83 ± 0.52
FSGGKSGGNKKSDGVKESSESTNT [CAMK2A] | 5.25 ± 0.2 | 5.36 ± 0.34
FSGTDWMLEKMDLKEFDLDALLGI [ATF4] | 2.33 ± 0.11 | 2.5 ± 0.49
FSKASSSLQLVFGIELMEVDPIGH [MAGEA3] | 2.62 ± 0.6 | 2.29 ± 0.46
FSLNPRSGSLITAGRIDREELCAQ [PCDHGA10] | 3.83 ± 0.38 | 3.93 ± 0.37
FSQLYLYSFISLFIYMVLSLFIAL [MCOLN1] | 3.28 ± 0.21 | 3.24 ± 0.21
FTEYQASAFGNVKLVVHDCPVWDI [RHOBTB3] | 2.54 ± 0.72 | 2.46 ± 0.41
FTFLGKKCVTMSSAVVQLYAADRN [WASL] | 2.33 ± 0.34 | 2.43 ± 0.36
FTSGFNAAALDYEADGSTNNGIFQ [SPACA3] | 2.67 ± 0.53 | 3.48 ± 0.74
FVADEGICYLPHWMMQNLLLEEGG [UFD1] | 2.36 ± 0.62 | 2.28 ± 0.38
FVESSGGGSSAVGQFVSLDGAGKT [BRF1] | 2.94 ± 0.52 | 3.44 ± 0.58
FYTCASHVTVVILFFVPCIFLYAR [OR4A15] | 3.13 ± 0.35 | 3.08 ± 0.26
GADPDSRDFDNNTPLHIAAQNNCP [FEM1A] | 4.96 ± 0.39 | 5.18 ± 0.88
GAGDWREKEAKDLTELVQRRITYL [FUT8] | 3.61 ± 0.27 | 3.31 ± 0.3
GAYKSSTICYCPEKGTWTELEGDV [KLHL14] | 4.22 ± 0.32 | 4.38 ± 0.32
GDDAPKEEVDTGAVNLIESGACGA [INTS4] | 5.5 ± 0.25 | 5.36 ± 0.18
